We go through eight molecules from article PMC5639694 (Journal of medicinal chemistry, 2017).

For experiment [1], the target named is mouse melanocortin 1 receptor (mouse) (UniProt Q01727).
For experiment [2], the target named is mouse melanocortin 4 receptor (mouse) (UniProt P56450).
Experiment [3] deals with mouse melanocortin 5 receptor (mouse) (UniProt P41149).
Experiment [4] addresses T1, mMC4R (Mus musculus, UniProt P56450). As to conditions: AGRP/NDP-MSH chimeric ligands; cited from earlier work.
The target of experiment [5] is mouse melanocortin 3 receptor (mouse) (UniProt P33033).
Experiment [6] deals with T1, mMC4R. The settings on record: read-out: mMC4R EC50; agonist; previously reported values; cited from earlier work.
In a further experiment the target is mMC5R (Mus musculus, UniProt P41149). The settings on record: read-out: mMC5R EC50; agonist; previously reported values; cited from earlier work.

Square brackets hold non-standard residues; d marks the D form. Dap = NC[C@H](N)C(=O)O

T1 sequence (P56450 whole entry): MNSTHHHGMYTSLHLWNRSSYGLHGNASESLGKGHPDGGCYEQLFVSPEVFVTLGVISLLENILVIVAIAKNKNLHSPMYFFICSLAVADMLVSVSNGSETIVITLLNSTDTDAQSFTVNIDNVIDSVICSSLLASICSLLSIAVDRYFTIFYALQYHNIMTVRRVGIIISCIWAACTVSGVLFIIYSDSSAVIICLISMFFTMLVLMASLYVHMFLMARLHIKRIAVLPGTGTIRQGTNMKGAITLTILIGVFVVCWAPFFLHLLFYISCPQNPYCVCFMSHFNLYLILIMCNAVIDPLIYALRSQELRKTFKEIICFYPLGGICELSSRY
mouse melanocortin 4 receptor (mouse), sequence (P56450 whole entry): as above
mouse melanocortin 5 receptor (mouse), sequence (P41149 whole entry): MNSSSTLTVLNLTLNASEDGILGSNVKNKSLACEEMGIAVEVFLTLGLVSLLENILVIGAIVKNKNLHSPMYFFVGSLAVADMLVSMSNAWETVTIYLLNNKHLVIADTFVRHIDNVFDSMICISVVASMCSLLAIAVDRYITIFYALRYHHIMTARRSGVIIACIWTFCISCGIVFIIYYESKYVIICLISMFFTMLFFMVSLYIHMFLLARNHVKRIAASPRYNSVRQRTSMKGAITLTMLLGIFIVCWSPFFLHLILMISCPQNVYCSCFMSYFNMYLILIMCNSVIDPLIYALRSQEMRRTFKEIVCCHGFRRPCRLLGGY
mouse melanocortin 1 receptor (mouse), sequence (Q01727 whole entry): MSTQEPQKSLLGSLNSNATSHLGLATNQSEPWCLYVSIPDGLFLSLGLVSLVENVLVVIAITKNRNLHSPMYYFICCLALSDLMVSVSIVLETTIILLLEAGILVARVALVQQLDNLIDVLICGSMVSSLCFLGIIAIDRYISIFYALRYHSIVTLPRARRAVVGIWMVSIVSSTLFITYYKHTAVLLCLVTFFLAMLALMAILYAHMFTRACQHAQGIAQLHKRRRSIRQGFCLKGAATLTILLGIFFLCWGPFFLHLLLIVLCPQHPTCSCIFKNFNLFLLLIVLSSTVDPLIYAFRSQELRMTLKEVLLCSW
mouse melanocortin 3 receptor (mouse), sequence (P33033 whole entry): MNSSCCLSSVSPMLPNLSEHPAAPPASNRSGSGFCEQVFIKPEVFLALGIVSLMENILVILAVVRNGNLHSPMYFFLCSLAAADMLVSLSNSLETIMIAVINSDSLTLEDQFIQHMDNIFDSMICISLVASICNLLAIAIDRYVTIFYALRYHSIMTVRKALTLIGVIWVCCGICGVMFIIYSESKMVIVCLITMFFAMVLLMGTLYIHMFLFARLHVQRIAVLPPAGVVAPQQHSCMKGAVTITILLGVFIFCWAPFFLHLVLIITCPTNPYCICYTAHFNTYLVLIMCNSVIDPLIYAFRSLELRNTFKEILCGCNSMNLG
mMC5R, sequence (P41149 whole entry): as the sequence (P41149 whole entry) above

Take cyclo(PH[dF]RW[Dap][dP]): the agonist EC50 (cAMP AlphaScreen, HEK293 cells stably expressing the receptor) in experiment [1] amounted to 460 nM; in experiment [2] it was 950 nM; in experiment [3] it was 330 nM.

Consider cyclo(PH[dF]RW[Dap]A[dP]), for which the agonist EC50 (cAMP AlphaScreen, HEK293 cells stably expressing the receptor) in experiment [1] was found to be 1.1 nM; in experiment [2], 1.6 nM.

Take “Tyr-c[Asp-His-DPhe-Arg-Trp-Asn-Ala-Phe-Dap]-Tyr-NH2”: the “selectivity for the mMC4R over the mMC3R (reported)” value on mMC4R [4] is 5 fold.

Turning to cyclo(PH[dF]RW[Dap]AF[dP]), the agonist EC50 (cAMP AlphaScreen, HEK293 cells stably expressing the receptor) in experiment [1] was determined as 24 nM; in experiment [5], 260 nM; in experiment [3] it was 18 nM.

For the molecule “Tyr-c[Cys-His-DPhe-Arg-Trp-Asn-Ala-Phe-Cys]-Tyr-NH2”, at mMC4R [4], the “selectivity for the mMC4R over the mMC3R (reported)” value is reported as 7 fold.

Regarding `CC(=O)N[C@@H](Cc1cnc[nH]1)C(=O)N[C@H](Cc1ccccc1)C(=O)N[C@@H](CCCN=C(N)N)C(=O)N[C@@H](Cc1c[nH]c2ccccc12)C(N)=O` [HfRW, Ac-His-DPhe-Arg-Trp-NH2], the EC50 on mMC4R [6] is 14 ± 2 nM; on mMC5R, 10 ± 3 nM.

B1: c[Pro-His-DPhe-Arg-Trp-Asn-Ala-DPro] (peptide)
peptide: cyclo(PH[dF]RWNA[dP])
SMILES: C[C@@H]1NC(=O)[C@H](CC(N)=O)NC(=O)[C@H](Cc2c[nH]c3ccccc23)NC(=O)[C@H](CCCNC(=N)N)NC(=O)[C@@H](Cc2ccccc2)NC(=O)[C@H](Cc2c[nH]cn2)NC(=O)[C@@H]2CCCN2C(=O)[C@H]2CCCN2C1=O
Regarding B1, the agonist EC50 (cAMP AlphaScreen, HEK293 cells stably expressing the receptor) was 12 nM in experiment [1], 29 nM in experiment [2] and 2.1 nM in experiment [3].

B2: c[Pro-His-DPhe-Arg-Trp-Asn-Ala-Phe-DPro] (peptide)
peptide: cyclo(PH[dF]RWNAF[dP])
SMILES: C[C@@H]1NC(=O)[C@H](CC(N)=O)NC(=O)[C@H](Cc2c[nH]c3ccccc23)NC(=O)[C@H](CCCNC(=N)N)NC(=O)[C@@H](Cc2ccccc2)NC(=O)[C@H](Cc2c[nH]cn2)NC(=O)[C@@H]2CCCN2C(=O)[C@H]2CCCN2C(=O)[C@H](Cc2ccccc2)NC1=O
For the molecule B2, the agonist EC50 (cAMP AlphaScreen, HEK293 cells stably expressing the receptor) in experiment [1] turned out to be 0.35 nM; in experiment [5] it was 32 nM; in experiment [2], 1.4 nM; in experiment [3], 0.45 nM.

The EC50 is the midpoint of the concentration-response curve.
